The target in test [1] is T1, ASH1L tandem bromodomain-PHD finger (aa 2436-2638) (human, UniProt Q9NR48 2436-2638).
T1 construct: ASH1L, human, bromodomain and PHD finger, aa 2436-2638 (NMR structure sample); 13C/15N-labelled and 75% deuterated; The protein expression section lists ASH1L_(BD-PHD) as aa 2430-2629 (GST fusion, E. coli); the NMR structure section gives aa 2436-2638; also called ASH1L_(BD-PHD)
Put plainly: NMR solution structure; 0.5 mM ASH1L_(BD-PHD) with H3K4me2 peptide (aa 1-15); 298 K; 200 mM sodium phosphate pH 6.3, 5 mM DTT. As to conditions: both partners purified.

Test [2] concerns the target T2, ASH1L plant homeodomain (PHD) finger, wild type (aa 2579-2629) (human, UniProt Q9NR48 2579-2629).
T2 construct: ASH1L, human, PHD finger, aa 2579-2629; 15N-labelled for NMR; also called ASH1LPHD; ASH1L PHD; source: E. coli BL21 or Rosetta2 (DE3) pLysS, purified (glutathione agarose, SEC)
Put plainly: NMR titration; 1H,15N HSQC chemical shift perturbation; unlabelled ligand (histone peptide or ASH1LSET) added to 0.1-0.2 mM 15N-labelled protein; 298 K; 25 mM Tris pH 7.5, 150 mM NaCl, 5 mM DTT. As to conditions: both partners purified.

Binding result and Kd data for 3 molecules are collected here from publication PMC11883000, “Structure-function relationship of ASH1L and histone H3K36 and H3K4 methylation” (Nature Communications, 2025).

Ends that are not written are not given here. Me2 = dimethylation (dimethyl-lysine)

By Kd is commonly meant the equilibrium constant for the complex coming apart.

B1: histone H3K4me2 peptide (aa 1-15 of H3) (peptide, UniProt P68431 2-16, looked up)
peptide: ARTK(Me2)QTARKSTGGKA
notes: histone H3, residues 1-15
Take B1: the binding result in test [1] is given as “binds”.

B2: histone H3K4me1 peptide (aa 1-12 of H3) (peptide, UniProt P68431 2-13, looked up)
peptide: ARTK(Me)QTARKSTG
notes: histone H3, residues 1-12
B2: in test [2], the Kd stood at 0.119 mM.

B3: histone H3K4me0 (unmodified) peptide (aa 1-12 of H3) (peptide, UniProt P68431 2-13, looked up)
peptide: ARTKQTARKSTG
notes: histone H3, residues 1-12
In the case of B3, the Kd in test [2] was found to be 1.9 mM.
